B1: securin: separase inhibitor securin, APC/C substrate protein (protein, UniProt P40316 1-373, looked up)
Securin: MMPANEDKENNIVYTGNESSGINFPQTPAHLLKRSHSNILKPPVRLDQLKRDANSNNGNTLKYIQGGKEVSPTKRLHTHAQQQGRLPLAAKDNNRSKSFIFPETSNQSKDADLPQLQNTLSIRKNDQLRKLSQISRSRSRANHNDLLSNSRKLQKYGSVLGYNALPKMKSLVLKDLADSGKNEESSDDDEGNEDSESKLGKKLQSALLKQDSSDGENELNGGLGLFNEQGGLQQLIKNSTKNEQKTKNDKSDKTDDYDIEIAPQRQEPLPYVPEGYSPFQQDDIEKLKTFNSPYKLDLEDEDDTPDKVDLLPLEQIDEEGEKDETECITRNQEEGAALPLLSKNFKEVAAVPTMELVYSEEGLDPEELEDLVT
B2: Clb5: yeast S-phase cyclin, APC/C substrate protein (protein, UniProt P30283 1-435, looked up)
S-phase entry cyclin-5: MGENHDHEQSIKRNSMIYNENERQLCNSNLKILQNKRALSKNDSSSKQQVQDSKPRRALTDVPVNNNPLSQNKRIVAGSKAAKVRREENIRPIVSAVQKRQIYNDRTAAEQEEEEEEEGEDDDAASIVNKKRRIDAEGVSEIVGWQDLDYVEKDDTAMVAEYSAEIFAFLYRRELETLPSHNYLLDKTSKYYLRPSMRTILVDWLVEVHEKFQCYPETLFLSINLMDRFLAKNKVTMNKLQLLAVTSLFIAAKFEEVNLPKLAEYAYITDGAASKNDIKNAEMFMLTSLEFNIGWPNPLNFLRRISKADDYDPVNRNIGKFILEYAYCCHQFIHLPPSTVSAMAMYIARRMTNRNKNELWNGTLQHYSGGIDPIHDEAFQSLCIDLVKDIASSKTHLDSLILKYKKPRYGSVYFQTFKWCTSEMHSNFQNLFNLK
B3: Cdh1: APC/C activator subunit (protein, UniProt P53197 1-566, looked up)
APC/C activator protein CDH1: MSTNLNPFMNNTPSSSPLKGSESKRVSKRPISSSSSASLLSSPSRRSRPSTVYGDRYIPSRTDIDFNSIVSISSMASVPALNPSSTEDQVEYQKERQAHETYNTLLKNELFGEMLSKDTVGSESSIDRIKNTRPSTRGNVHAENTTRHGYELERVSTPPPEAAGLEEFSPHSTPVTPRRLFTSQQDEITRPSSNSVRGASLLTYQQRKGRRLSAASLLQSQFFDSMSPVRPDSKQLLLSPGKQFRQIAKVPYRVLDAPSLADDFYYSLIDWSSTDVLAVALGKSIFLTDNNTGDVVHLCDTENEYTSLSWIGAGSHLAVGQANGLVEIYDVMKRKCIRTLSGHIDRVACLSWNNHVLTSGSRDHRILHRDVRMPDPFFETIESHTQEVCGLKWNVADNKLASGGNDNVVHVYEGTSKSPILTFDEHKAAVKAMAWSPHKRGVLATGGGTADRRLKIWNVNTSIKMSDIDSGSQICNMVWSKNTNELVTSHGYSKYNLTLWDCNSMDPIAILKGHSFRVLHLTLSNDGTTVVSGAGDETLRYWKLFDKPKAKVQPNSLIFDAFNQIR

Key:
[1] = Aggregation / background fluorescence in SMOR assay; type: physicochemical
Procedure: To capture dynamic protein–protein interactions, dye-labeled substrate diluted in buffer C + BSA was added to the chamber containing immobilized proteins. Interactions were imaged by TIRF microscopy as described below. For optimal signal-to-noise ratio, peptide concentration was no greater than 1 nM. Protein substrates included Hsl1 aa 667–872 and a C-terminal HaloTag followed by a TAP tag, and were produced by translation in rabbit reticulocyte lysates using TnT Quick Coupled Transcription/Translation System (Promega) (see Supplementary Table 5 for plasmids). Protein was purified with magnetic IgG beads and labeled on the bead with JF549 or JF646 dye so that unbound dye could be washed away. Purified dye-labeled protein was then cleaved from the beads using TEV protease. Before adding substrate to the reaction chamber, oxygen scavenging reagents were added (10 nM protocatechuate-3,4-dioxygenase, 2.5 mM protocatechuic acid, and 1 mM Trolox)[41]. A detailed description of the SMOR analysis pipeline is found in Supplementary Note 1.

APC/C [2] = details: APC/C^Cdc20 vs APC/C^Cdh1; cited from earlier work
Description: We find that the yeast securin ...

APC/C [3] = details: purified yeast components, 30 min; 20 (Mizrak & Morgan, 2019); cited from earlier work
Description: It is therefore unlikely that activator dissociation is occurring during our measurements of substrate dissociation from APC/C^Cdh1 or APC/C^Cdc20. || page 6: Cdh1 in Supplementary Figure 6. 2. Fig. 1b. List human peptide sequences used in this study. Now added to Supplementary Figure 6. 3. APC/C-Cdh1 interaction stability and life-time. The SMOR assay is dependent on a stable APC/C-Cdh1 interaction, longer than the dwell times of APC/C-activator-substrate complexes. Can the authors measure the dwell time of APC/C bound to activator? Excellent point.

Row | Molecule | aggregation / background (in words) [1] | processivity of ubiquitylation (in words) (APC/C [2]) | dissociation from the APC/C (in words) (APC/C [3])
1 | B1 | tendency to aggregate and create excessive background fluorescence | more processive than that with APC/C^Cdh1 | 
2 | B2 |  | more processive than that with APC/C^Cdh1 | 
3 | B3 |  |  | dissociation from the APC/C was not detected in 30 min

Reference: article PMC8764033, “Single-molecule analysis of specificity and multivalency in binding of short linear substrate motifs to the APC/C” (Nature Communications, 2022)
